Experimental data: doi:10.1101/2020.12.29.424742
Where “and” joins values, the source holds several entries; their conditions need not be identical. Identical values can stand only once. One block for each substance: values may come before it.

Legend:
Assay in all cases: SEC
[1] = target: DEBS3M5 KS0-AT A539F (Saccharopolyspora erythraea)
[2] = target: PikAIIIM5 KS0-AT didomain (pikromycin synthase module 5) (Streptomyces venezuelae)
[3] = target: DEBS3M5 KS0-AT R850K (Saccharopolyspora erythraea)
[4] = target: RAPS3M14 KS0-AT didomain (rapamycin synthase module 14) (Streptomyces hygroscopicus)
[5] = target: DEBS3M5 KS0-AT R850F (Saccharopolyspora erythraea)
[6] = target: DEBS3M5 KS0-AT R850E (Saccharopolyspora erythraea)
[7] = target: DEBS3M5 KS0-AT A539S (Saccharopolyspora erythraea)
[8] = target: DEBS3M5 KS0-AT R850A (Saccharopolyspora erythraea)
[9] = target: DEBS3M5 KS0-AT R850S (Saccharopolyspora erythraea)
[10] = target: Pks7 KS0-AT didomain (Saccharopolyspora erythraea)
[11] = target: DEBS3M5 KS0-AT didomain, wild type (6-deoxyerythronolide B synthase module 5, KS knockout) (Saccharopolyspora erythraea)
[12] = target: DEBS3M5 KS0-AT A539E (Saccharopolyspora erythraea)
[13] = target: DEBS3M5 KS0-AT A539D (Saccharopolyspora erythraea)

Substance: PikAIIIM5 KS0-AT didomain (pikromycin synthase module 5) (domain or fragment)
stoichiometry N [2]: 2

Substance: DEBS3M5 KS0-AT R850K (domain or fragment)
stoichiometry N [3]: 4 and 2

Substance: RAPS3M14 KS0-AT didomain (rapamycin synthase module 14) (domain or fragment)
stoichiometry N [4]: 4

Substance: DEBS3M5 KS0-AT A539S (domain or fragment)
stoichiometry N [7]: 4 and 2

Substance: DEBS3M5 KS0-AT R850S (domain or fragment)
stoichiometry N [9]: 4 and 2

Substance: DEBS3M5 KS0-AT didomain, wild type (6-deoxyerythronolide B synthase module 5, KS knockout) (domain or fragment)
stoichiometry N [11]: 4 and 2

Second part, the substance after the results:

stoichiometry N [1]: 4 and 2
Substance: DEBS3M5 KS0-AT A539F (domain or fragment)

stoichiometry N [5]: 4 and 2
Substance: DEBS3M5 KS0-AT R850F (domain or fragment)

stoichiometry N [6]: 4 and 2
Substance: DEBS3M5 KS0-AT R850E (domain or fragment)

stoichiometry N [8]: 4 and 2
Substance: DEBS3M5 KS0-AT R850A (domain or fragment)

stoichiometry N [10]: 2
Substance: Pks7 KS0-AT didomain (domain or fragment)

stoichiometry N [12]: 4 and 2
Substance: DEBS3M5 KS0-AT A539E (domain or fragment)

stoichiometry N [13]: 4 and 2
Substance: DEBS3M5 KS0-AT A539D (domain or fragment)
